{"source": "paper PMC4834642", "about": "“Orthogonal ring-closing alkyne and olefin metathesis for the synthesis of small GTPase-targeting bicyclic peptides” (Nature Communications, 2016)", "key": {"peptide 21": {"molecular_target": "T1, peptide 21 (Homo sapiens, UniProt Q6IQ26)", "T1 chain": "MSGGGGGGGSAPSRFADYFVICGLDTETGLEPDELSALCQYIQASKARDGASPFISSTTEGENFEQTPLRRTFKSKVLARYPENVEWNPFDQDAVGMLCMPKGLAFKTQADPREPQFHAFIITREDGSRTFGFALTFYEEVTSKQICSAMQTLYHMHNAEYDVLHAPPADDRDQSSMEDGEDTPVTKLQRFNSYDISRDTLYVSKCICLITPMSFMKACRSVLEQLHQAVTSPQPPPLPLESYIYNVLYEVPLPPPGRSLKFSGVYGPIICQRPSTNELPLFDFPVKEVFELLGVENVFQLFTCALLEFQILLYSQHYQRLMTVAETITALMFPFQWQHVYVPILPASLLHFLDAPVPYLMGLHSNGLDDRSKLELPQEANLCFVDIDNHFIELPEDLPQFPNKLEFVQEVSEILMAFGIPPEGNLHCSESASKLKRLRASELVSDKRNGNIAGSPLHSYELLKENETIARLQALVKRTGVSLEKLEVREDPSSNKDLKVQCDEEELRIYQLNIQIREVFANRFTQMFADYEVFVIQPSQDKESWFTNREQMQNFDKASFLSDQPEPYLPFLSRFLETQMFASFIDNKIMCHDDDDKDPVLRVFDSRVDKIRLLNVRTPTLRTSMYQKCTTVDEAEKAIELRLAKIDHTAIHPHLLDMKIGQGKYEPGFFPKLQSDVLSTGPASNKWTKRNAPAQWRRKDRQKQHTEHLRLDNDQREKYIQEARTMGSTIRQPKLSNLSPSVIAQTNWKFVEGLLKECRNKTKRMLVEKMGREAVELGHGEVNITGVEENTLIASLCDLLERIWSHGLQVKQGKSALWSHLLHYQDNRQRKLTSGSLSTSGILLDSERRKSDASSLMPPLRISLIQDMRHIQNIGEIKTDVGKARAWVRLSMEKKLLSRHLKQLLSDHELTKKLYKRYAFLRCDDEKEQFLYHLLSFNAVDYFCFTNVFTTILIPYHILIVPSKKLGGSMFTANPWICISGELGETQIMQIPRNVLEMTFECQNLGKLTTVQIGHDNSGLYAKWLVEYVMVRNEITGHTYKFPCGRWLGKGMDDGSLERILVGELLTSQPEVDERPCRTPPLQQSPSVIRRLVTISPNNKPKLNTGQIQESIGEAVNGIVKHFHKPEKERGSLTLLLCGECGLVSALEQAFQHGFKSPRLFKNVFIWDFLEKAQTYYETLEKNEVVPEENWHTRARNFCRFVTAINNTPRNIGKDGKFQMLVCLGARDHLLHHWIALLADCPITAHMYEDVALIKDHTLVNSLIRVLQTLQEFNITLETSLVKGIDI", "experiment": "fluorescence polarization"}, "StRIP3 [1]": {"molecular_target": "T2, StRIP3 (Homo sapiens, UniProt Q6IQ26)", "T2 chain": "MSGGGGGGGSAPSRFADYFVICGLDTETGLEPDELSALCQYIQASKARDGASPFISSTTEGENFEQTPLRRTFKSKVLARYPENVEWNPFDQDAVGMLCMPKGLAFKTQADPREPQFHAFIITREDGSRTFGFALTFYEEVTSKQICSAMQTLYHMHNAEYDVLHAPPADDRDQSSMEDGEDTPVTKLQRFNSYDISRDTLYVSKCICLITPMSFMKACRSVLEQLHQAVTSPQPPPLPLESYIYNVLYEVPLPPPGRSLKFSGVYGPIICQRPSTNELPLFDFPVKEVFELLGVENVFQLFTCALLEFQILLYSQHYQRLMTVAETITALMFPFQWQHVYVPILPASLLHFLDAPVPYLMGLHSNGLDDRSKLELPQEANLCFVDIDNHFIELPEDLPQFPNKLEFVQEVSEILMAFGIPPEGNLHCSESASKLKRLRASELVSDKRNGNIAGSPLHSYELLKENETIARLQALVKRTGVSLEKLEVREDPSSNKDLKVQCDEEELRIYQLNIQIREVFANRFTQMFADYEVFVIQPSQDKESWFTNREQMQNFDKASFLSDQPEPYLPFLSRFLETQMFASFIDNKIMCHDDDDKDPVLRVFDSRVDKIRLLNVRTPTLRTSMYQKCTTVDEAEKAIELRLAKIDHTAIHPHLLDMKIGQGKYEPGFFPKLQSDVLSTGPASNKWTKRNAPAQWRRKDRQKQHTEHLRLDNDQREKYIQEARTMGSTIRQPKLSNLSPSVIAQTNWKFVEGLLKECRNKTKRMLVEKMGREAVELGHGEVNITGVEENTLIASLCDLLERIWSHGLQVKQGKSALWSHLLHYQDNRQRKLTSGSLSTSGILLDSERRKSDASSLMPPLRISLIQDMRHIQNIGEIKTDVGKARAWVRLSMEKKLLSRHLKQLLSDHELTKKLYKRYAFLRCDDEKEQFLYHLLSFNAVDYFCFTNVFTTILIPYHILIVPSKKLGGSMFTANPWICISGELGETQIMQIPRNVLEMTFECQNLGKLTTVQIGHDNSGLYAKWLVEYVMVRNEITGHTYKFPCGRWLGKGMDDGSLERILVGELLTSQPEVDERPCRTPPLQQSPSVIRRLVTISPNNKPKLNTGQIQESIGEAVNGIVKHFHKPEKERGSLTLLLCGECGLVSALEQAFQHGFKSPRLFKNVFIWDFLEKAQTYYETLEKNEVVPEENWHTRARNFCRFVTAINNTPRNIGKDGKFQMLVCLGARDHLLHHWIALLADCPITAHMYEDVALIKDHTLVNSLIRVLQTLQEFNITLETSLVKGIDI", "experiment": "competition fluorescence polarization"}, "StRIP3 [2]": {"molecular_target": "T2, StRIP3", "experiment": "fluorescence polarization"}, "peptide 25 [3]": {"molecular_target": "T3, peptide 25 (Homo sapiens, UniProt Q6IQ26)", "T3 chain": "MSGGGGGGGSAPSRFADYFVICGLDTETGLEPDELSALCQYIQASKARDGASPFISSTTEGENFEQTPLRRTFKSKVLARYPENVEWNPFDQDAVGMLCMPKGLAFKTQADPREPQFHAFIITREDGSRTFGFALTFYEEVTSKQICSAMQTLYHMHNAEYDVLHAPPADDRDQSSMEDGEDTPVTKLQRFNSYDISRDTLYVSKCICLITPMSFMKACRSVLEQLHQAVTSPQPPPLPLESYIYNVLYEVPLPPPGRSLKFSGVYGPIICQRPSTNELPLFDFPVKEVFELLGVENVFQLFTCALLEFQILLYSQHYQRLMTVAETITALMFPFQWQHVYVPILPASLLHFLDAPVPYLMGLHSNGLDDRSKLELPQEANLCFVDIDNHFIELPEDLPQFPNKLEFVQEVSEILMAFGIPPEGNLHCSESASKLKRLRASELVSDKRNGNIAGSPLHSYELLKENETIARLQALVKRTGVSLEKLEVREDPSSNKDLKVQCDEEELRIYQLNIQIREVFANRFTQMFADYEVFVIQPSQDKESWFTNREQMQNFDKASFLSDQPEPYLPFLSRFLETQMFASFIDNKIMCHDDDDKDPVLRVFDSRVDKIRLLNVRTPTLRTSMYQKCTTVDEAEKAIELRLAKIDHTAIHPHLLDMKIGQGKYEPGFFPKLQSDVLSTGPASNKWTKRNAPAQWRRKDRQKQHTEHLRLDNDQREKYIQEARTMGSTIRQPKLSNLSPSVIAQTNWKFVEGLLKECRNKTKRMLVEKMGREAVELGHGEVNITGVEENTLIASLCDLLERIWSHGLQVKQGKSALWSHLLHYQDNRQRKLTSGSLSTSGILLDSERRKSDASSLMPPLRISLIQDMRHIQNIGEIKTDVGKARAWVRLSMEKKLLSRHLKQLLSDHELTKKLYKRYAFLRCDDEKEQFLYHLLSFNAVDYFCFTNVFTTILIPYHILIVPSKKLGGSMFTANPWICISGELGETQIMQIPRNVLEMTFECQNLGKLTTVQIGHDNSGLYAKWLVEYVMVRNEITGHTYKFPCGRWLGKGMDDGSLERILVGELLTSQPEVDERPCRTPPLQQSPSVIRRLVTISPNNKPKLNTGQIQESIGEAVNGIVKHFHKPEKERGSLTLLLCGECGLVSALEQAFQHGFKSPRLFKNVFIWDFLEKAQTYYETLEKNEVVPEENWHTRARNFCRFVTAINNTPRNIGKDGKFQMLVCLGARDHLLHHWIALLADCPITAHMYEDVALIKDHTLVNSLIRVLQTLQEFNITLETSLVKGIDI", "experiment": "microscale thermophoresis (fluorescence intensity)"}, "peptide 25 [4]": {"molecular_target": "T3, peptide 25", "experiment": "fluorescence polarization"}}}
{"binder": "Rab8a 6-176 (protein, GppNHp-bound Rab8a; dibrominated olefin macrocyclic StRIP3 derivative, fluorescein-PEG label) DYLFKLLLIGDSGVGKTCVLFRFSEDAFNSTFISTIGIDFKIRTIELDGKRIKLQIWDTAGQERFRTITTAYYRGAMGIMLVYDITNEKSFDNIRNWIRNIEEHASADVEKMILGNKCDVNDKRQVSKERGEKLALDYGIKFMETSAKANINVENAFFTLARDIKAKMDKK", "values": [{"measurement": "Kd", "setting": "peptide 21", "result": 10.7, "unit": "µM"}]}
{"binder": "Rab8a 6-176 (protein, GppNHp-bound Rab8a; acetylated i,i+4 olefin hydrocarbon-stapled peptide) DYLFKLLLIGDSGVGKTCVLFRFSEDAFNSTFISTIGIDFKIRTIELDGKRIKLQIWDTAGQERFRTITTAYYRGAMGIMLVYDITNEKSFDNIRNWIRNIEEHASADVEKMILGNKCDVNDKRQVSKERGEKLALDYGIKFMETSAKANINVENAFFTLARDIKAKMDKK", "values": [{"measurement": "IC50", "setting": "StRIP3 [1]", "result": 33, "unit": "µM"}]}
{"binder": "Rab8a 6-176 (protein, GppNHp-bound Rab8a; i,i+4 olefin hydrocarbon-stapled peptide, fluorescein-PEG label) DYLFKLLLIGDSGVGKTCVLFRFSEDAFNSTFISTIGIDFKIRTIELDGKRIKLQIWDTAGQERFRTITTAYYRGAMGIMLVYDITNEKSFDNIRNWIRNIEEHASADVEKMILGNKCDVNDKRQVSKERGEKLALDYGIKFMETSAKANINVENAFFTLARDIKAKMDKK", "values": [{"measurement": "Kd", "setting": "StRIP3 [2]", "result": 20.7, "unit": "µM"}]}
{"binder": "Rab8a 6-176 (protein, GppNHp-bound Rab8a; bicyclic olefin/alkyne crosslinked StRIP3 derivative, fluorescein-PEG label) DYLFKLLLIGDSGVGKTCVLFRFSEDAFNSTFISTIGIDFKIRTIELDGKRIKLQIWDTAGQERFRTITTAYYRGAMGIMLVYDITNEKSFDNIRNWIRNIEEHASADVEKMILGNKCDVNDKRQVSKERGEKLALDYGIKFMETSAKANINVENAFFTLARDIKAKMDKK", "values": [{"measurement": "Kd", "setting": "peptide 25 [3]", "result": 11, "unit": "µM"}, {"measurement": "Kd", "setting": "peptide 25 [4]", "result": 6.6, "unit": "µM"}]}
